For the assay, the target named is COVID-19 virus main protease (M^pro) (COVID-19 virus). As to the kind of experiment: crystal structure.

In article doi:10.1101/2020.02.26.964882 one finds stoichiometry N data, which are given here for one substance.

By stoichiometry N is commonly meant the number of molecules, sites or subunits per partner or assembly. Take “COVID-19 virus main protease (M^pro) (enzyme)”: the stoichiometry N was found to be 2.
